# Assay results: patent US20240181006A1, “POLYPEPTIDES BINDING ADAMTS5, MMP13 AND AGGRECAN” (Merck Patent GmbH, priority 2017, published 2024)
# T1: human MMP1 (Homo sapiens, UniProt P03956)
# T1 sequence (P03956 100-469): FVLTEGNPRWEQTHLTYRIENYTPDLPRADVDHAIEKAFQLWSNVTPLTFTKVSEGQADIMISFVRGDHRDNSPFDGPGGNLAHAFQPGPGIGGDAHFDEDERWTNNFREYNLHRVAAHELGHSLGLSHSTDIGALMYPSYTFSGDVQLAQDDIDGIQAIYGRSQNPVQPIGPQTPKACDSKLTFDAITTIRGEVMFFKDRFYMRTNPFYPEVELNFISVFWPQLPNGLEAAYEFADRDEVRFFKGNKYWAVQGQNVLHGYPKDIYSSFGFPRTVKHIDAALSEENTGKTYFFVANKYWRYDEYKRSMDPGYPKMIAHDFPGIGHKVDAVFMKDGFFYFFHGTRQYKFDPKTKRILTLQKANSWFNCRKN
# B1: ISVD 62C02: MMP13 specific immunoglobulin single variable domain (protein)
# VHH: EVQLVESGGGVVQPGGSLRLSCAASGFAFSAAYMSWVRQAPGKGLEWVSSISDDGSKTYYADSVKGRFTISRDNSKNTVYLQMNSLRPEDTALYYCNTGYGATTTRPGRYWGQGTLVTVSS
# modifications: Description of Artificial Sequence: Synthetic anti-MMP13 immunoglobulin single variable domain (ISVD)
# B2: TIMP3: natural inhibitor of MMP1 and MMP14 (protein)
# chain: CTCSPSHPQDAFCNSDIVIRAKVVGKKLVKEGPFGTLVYTIKQMKMYRGFTKMPHVQYIHTEASESLCGLKLEVNKYQYLLTGRVYDGKMYTGLCNFVERWDQLTLSQRKGLNYRYHLGCNCKIKSCYYLPCFVTSKNECLWTDMLSNFGYPGYQSKHYACIRQKGGYCSWYRGWAPPDKSIINATDP
# B3: ISVD 114F08: Aggrecan-specific immunoglobulin single variable domain (CAP), binds G1 domain (protein)
# VHH: EVQLVESGGGVVQPGGSLRLSCAASGSTFIINVVRWYRRAPGKQRELVATISSGGNANYVDSVRGRFTISRDNSKNTVYLQMNSLRPEDTALYYCNVPTTHYGGVYYGPYWGQGTLVTVSS
# modifications: Description of Artificial Sequence: Synthetic anti-Aggrecan immunoglobulin single variable domain (ISVD)
# Assays:
# human MMP14 [1] = biological target: T2, human MMP14 (Homo sapiens, UniProt P50281); test: human MMP14 fluorogenic peptide assay (selectivity of 62C02); format: biochemical; conditions: data not shown
# Experimental: (§1) In brief, the setup of human, cynomolgus, rat, dog and bovine MMP13 fluorogenic peptide assays, as well as human MMP1 and MMP14 fluorogenic peptide assays is as follows. Activated MMP was incubated with fluorogenic peptide substrate Mca-PLGL-Dpa-AR-NH2 (R&D Systems #ES001) and a ⅕ dilution of periplasmic extract or a dilution series of purified Nanobody/positive control (total volume=20 μl in assay buffer 50 mM Tris pH 7.5, 100 mM NaCl, 10 mM CaCl2), 0.01% Tween20), for 2 h at 37° C. The linear increase of fluorescence (v0-between 15 and 45 min incubation) was used as a measure for the enzymatic activity and % inhibition was calculated with the formula 100-100 (v0 in the presence of test Nanobody/v0 in the presence of negative control Nanobody (Cablys)).
# (§2) In order to determine the selectivity of ISVD 62C02 for MMP13, fluorogenic peptide assays for MMP1 and MMPP14 were used. MMP1 and MMP14 are two closely related MMP family members. TIMP-2 was used as positive control in these assays. A similar set up as described in Example 1.1 was used.
# human MMP1 [2] = biological target: T1, human MMP1; test: human MMP1 fluorogenic peptide assay (selectivity of 62C02); format: biochemical; conditions: data not shown
# Experimental: as §1, §2
# human MMP14 [3] = biological target: T2, human MMP14; test: FRET-based human MMP14 assay (selectivity of 02F03); format: biochemical; conditions: data not shown
# Experimental: (§3) To confirm the selectivity of ISVD 02F03 for ADAMTS5, inhibition of the enzymatic activity of MMP1, MMP14 and ADAMTS4 was evaluated via FRET-based assays and a human ADAMTS4 AlphaLISA, with the respective enzymes.
# (§4) Activated human MMP1 or MMP14 was incubated for 30 minutes at room temperature with 10 μl of dilution series of ISVD 02F03. After incubation, 20 μl of respectively 5 μM or 2.5 μM fluorogenic peptide substrate (Mca-PLGL-Dpa-AR-NH2 Fluorogenic MMP Substrate (R&D Systems cat #ES001)) was added. The ability of ISVD 02F03 to prevent MMP1- and MMP14-mediated cleavage was monitored every minute for 2 hours at 37° C. on a Tecan Infinite M1000 plate reader.
# human MMP1 [4] = biological target: T1, human MMP1; test: FRET-based human MMP1 assay (selectivity of 02F03); format: biochemical; conditions: data not shown
# Experimental: as §3, §4
# Bov G1-IGD-G2 = biological target: T3, Bov G1-IGD-G2 (Bos taurus, UniProt P13608); test: periplasmic extract ELISA, bovine Aggrecan G1-IGD-G2; format: binding
# T3 construct: the recombinant G1-IGD-G2 region from human, cynomolgus, rat, dog and bovine Aggrecan
# T3 sequence (P13608 20-685 limits assumed): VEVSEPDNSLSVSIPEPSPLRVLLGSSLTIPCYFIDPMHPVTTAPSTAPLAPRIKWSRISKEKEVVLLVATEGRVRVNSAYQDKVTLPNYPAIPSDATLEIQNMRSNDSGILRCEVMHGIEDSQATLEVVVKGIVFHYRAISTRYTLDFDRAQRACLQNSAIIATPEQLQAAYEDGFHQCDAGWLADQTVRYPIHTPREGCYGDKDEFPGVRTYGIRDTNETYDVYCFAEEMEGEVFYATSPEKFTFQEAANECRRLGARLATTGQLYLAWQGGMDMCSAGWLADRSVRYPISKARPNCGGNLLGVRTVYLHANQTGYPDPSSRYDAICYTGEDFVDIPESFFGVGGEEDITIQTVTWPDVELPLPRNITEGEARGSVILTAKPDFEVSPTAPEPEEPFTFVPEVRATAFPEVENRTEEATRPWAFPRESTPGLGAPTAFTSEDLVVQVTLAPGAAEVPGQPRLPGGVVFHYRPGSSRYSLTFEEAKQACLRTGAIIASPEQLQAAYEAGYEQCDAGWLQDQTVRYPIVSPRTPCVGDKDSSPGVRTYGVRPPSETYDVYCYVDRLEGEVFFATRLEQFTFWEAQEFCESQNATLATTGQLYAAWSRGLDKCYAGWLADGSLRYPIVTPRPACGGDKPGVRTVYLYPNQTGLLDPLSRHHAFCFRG
# Description: (§5) After the primary screening, initial assessment of binding via ELISA, determination of off-rate and species cross-reactivity, ISVD 114F08 was subjected to further characterization.
# Rat G1-IGD-G2 = test: periplasmic extract ELISA, rat Aggrecan G1-IGD-G2; format: binding
# Sequence of Rat G1-IGD-G2 (P07897 20-684 limits assumed): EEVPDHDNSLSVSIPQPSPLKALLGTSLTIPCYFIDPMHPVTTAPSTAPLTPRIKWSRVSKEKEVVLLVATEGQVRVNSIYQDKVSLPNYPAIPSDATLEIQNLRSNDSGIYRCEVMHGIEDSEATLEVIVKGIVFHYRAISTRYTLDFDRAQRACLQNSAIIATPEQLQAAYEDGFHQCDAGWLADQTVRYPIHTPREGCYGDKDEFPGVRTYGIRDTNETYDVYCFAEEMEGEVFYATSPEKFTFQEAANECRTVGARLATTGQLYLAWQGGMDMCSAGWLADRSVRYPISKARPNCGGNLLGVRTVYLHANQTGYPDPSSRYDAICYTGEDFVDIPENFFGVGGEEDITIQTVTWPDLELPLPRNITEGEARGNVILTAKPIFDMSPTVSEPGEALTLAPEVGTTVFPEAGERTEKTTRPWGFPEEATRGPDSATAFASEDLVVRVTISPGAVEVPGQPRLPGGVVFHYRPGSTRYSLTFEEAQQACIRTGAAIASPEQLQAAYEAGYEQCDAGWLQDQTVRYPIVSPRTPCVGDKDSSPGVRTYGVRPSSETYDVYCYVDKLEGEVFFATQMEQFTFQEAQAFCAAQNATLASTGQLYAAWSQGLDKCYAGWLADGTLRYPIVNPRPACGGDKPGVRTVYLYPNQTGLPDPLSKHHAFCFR
# Description: as §5
# Dog G1-IGD-G2 = biological target: T4, Dog G1-IGD-G2 (Canis lupus familiaris, UniProt Q28343); test: periplasmic extract ELISA, dog Aggrecan G1-IGD-G2; format: binding
# T4 construct: Dog G1-IGD-G2
# T4 sequence (Q28343 20-693): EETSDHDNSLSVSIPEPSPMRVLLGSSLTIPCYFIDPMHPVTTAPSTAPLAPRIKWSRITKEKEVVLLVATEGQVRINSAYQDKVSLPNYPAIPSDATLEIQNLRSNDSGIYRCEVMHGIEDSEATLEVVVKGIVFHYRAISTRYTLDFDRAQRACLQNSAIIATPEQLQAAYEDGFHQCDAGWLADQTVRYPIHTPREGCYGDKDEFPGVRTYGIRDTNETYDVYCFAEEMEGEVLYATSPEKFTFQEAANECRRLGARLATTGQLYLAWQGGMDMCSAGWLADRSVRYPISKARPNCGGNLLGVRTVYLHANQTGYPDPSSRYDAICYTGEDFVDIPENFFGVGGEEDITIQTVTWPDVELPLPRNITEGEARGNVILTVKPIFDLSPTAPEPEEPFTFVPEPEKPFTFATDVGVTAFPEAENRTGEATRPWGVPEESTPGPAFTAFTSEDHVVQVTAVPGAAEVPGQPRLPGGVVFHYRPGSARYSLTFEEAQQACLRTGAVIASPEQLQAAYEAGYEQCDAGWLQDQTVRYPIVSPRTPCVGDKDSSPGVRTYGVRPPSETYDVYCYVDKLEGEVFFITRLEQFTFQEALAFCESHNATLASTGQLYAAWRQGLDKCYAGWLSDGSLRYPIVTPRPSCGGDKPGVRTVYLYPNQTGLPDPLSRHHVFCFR
# Description: as §5
# Cy G1-IGD-G2 = test: periplasmic extract ELISA, cynomolgus Aggrecan G1-IGD-G2; format: binding
# Description: as §5
# Hu G1-IGD-G2 = biological target: T5, Hu G1-IGD-G2 (Homo sapiens, UniProt P16112); test: periplasmic extract ELISA, human Aggrecan G1-IGD-G2; format: binding
# T5 construct: Hu G1-IGD-G2
# T5 sequence (P16112 20-676 limits assumed): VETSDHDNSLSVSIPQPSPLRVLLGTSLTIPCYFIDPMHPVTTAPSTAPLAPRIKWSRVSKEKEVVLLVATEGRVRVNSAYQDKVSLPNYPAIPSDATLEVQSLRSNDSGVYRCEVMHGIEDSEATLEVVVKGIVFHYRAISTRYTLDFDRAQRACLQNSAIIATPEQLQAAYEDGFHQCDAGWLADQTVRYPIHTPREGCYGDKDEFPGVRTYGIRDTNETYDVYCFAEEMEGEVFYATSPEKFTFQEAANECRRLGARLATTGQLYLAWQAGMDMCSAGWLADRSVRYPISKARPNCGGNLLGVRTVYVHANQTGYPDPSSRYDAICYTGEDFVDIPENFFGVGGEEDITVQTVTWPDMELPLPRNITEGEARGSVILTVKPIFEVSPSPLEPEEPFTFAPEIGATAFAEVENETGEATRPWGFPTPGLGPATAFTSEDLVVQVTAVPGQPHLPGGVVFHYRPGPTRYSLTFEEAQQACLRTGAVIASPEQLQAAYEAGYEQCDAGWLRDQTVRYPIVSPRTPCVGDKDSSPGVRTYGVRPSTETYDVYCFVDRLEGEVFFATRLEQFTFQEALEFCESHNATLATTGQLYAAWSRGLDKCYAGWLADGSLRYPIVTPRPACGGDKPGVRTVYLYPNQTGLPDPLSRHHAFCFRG
# Description: as §5
molecule,measurement,setting,value
B1,MMP14 inhibition,human MMP14 [1],no MMP1 or MMP14 inhibition
same,MMP1 inhibition,human MMP1 [2],no MMP1 or MMP14 inhibition
B2,inhibition of MMP14 activity,human MMP14 [3],inhibited
same,inhibition of MMP1 activity,human MMP1 [4],inhibited
B3,"Periplasmic extract ELISA OD 450 nm, Bov G1-IGD-G2",Bov G1-IGD-G2,1.18
same,"Periplasmic extract ELISA OD 450 nm, Rat G1-IGD-G2",Rat G1-IGD-G2,2.05
same,"Periplasmic extract ELISA OD 450 nm, Dog G1-IGD-G2",Dog G1-IGD-G2,1.90
same,"Periplasmic extract ELISA OD 450 nm, Cy G1-IGD-G2",Cy G1-IGD-G2,2.32
same,"Periplasmic extract ELISA OD 450 nm, Hu G1-IGD-G2",Hu G1-IGD-G2,2.38
